The text below walks through data of patent US20250101096A1 (SERA PROGNOSTICS, published 2025).

By Kd is commonly meant the concentration at which binding is half-saturated. The term koff denotes a measure of how fast the partners let go of each other. One may read the kon as a measure of how fast the partners come together. A high value points to faster complex formation.

Substitutions are numbered along the chain they refer to.

Experiment [1] deals with T1, anti-IBP4 antibody clone variant 7D6.G4.
T1 construct: Mouse monoclonal; variant form; also called IBP4 (7D6.G4) V2; IBP4-7D6.G4
T1 sequence (VH, as listed by the source, chain 1 of 2): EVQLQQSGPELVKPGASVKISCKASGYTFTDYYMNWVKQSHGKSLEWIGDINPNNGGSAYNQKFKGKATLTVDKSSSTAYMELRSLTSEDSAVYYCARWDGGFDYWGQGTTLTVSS
T1 sequence (VL, as listed by the source, chain 2 of 2): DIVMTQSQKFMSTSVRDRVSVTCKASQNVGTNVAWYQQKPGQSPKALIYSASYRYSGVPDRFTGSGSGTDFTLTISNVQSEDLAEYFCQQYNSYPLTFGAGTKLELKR
The experiment is described as follows: ECLIA, peptide competes with IBP4 for the antibody.

For experiment [2], the target named is T2, anti-IBP4 antibody clone variant 5B3.G9.
T2 construct: Mouse monoclonal; variant form expressed in CHO cells; also called IBP4 (5B3.G9) V1; IBP4-5B3.G9
T2 sequence (heavy, as listed by the source, chain 1 of 2): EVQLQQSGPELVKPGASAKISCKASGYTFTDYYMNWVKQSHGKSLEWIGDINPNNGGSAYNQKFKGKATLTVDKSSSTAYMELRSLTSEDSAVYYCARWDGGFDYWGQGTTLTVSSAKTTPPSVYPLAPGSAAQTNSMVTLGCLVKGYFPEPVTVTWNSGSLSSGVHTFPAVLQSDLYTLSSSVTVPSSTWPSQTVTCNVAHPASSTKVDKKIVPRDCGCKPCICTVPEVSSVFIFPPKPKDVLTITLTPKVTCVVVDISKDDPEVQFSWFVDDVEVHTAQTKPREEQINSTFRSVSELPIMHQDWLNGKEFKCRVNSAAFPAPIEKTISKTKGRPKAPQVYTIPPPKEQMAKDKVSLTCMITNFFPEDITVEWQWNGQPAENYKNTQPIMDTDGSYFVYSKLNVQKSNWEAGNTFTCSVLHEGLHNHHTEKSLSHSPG
T2 sequence (light, as listed by the source, chain 2 of 2): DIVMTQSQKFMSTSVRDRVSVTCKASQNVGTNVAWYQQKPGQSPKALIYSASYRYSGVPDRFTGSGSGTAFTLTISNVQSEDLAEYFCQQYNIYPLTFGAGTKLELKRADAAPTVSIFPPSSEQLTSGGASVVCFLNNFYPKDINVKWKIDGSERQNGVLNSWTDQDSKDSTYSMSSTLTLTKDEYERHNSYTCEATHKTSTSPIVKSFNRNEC
The experiment is described as follows: ECLIA, peptide competes with IBP4 for the antibody.

In experiment [3] the target is T3, human insulin-like growth factor binding protein 4 (IBP4) (human, UniProt P22692 22-258).
T3 construct: also called IBP4 protein; IGFBP4
T3 sequence: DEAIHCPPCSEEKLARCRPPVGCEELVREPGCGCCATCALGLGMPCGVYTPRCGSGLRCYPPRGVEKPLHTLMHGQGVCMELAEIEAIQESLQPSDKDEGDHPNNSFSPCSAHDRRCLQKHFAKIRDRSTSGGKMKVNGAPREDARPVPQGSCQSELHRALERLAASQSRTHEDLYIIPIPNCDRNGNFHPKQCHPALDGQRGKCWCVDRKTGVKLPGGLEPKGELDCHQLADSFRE
Nature of the experiment: AC-MS, mAb on M-PVA beads, QC2 serum, round 2 (beads reused).

For experiment [4], the target named is T3, human insulin-like growth factor …. Nature of the experiment: AC-MS, mAb on M-PVA beads, QC2 serum, round 1.
Experiment [5] shares this target. The experiment is described as follows: AC-MS, mAb on M-PVA beads, pooled pregnant serum. The source says:
(§1) Anti-IBP4 antibody evaluation and selection. A total of 8 hybridoma clones (1H9.B6, 5C11.A7, 7G11.H4, 3D4.E9, 1G3.A3, 8G4.G11, 5F10.B2, and 3D8.A11) were produced according to the “additional production of anti-IBP4 antibodies” methods disclosed in Example 1 and screened by AC-MS, shown in Table 10 below. Monoclonal antibodies from these clones purified by protein-G affinity chromatography were covalently coupled to M-PVA magnetic beads and used in AC-MS experiments using pooled pregnant serum. The 5B3.G9 anti-IBP4 antibody clone was included in this analysis for comparison to the performance of the additional IBP4 antibodies, as shown and italicized in Table 10 below. Table 10 includes a summary of the additional antibodies Response Ratios and shared epitope binding results as determined by the competitive binding assays of Example 3.

Experiment [6] shares this target. The experiment is described as follows: AC-MS, mAb on M-PVA beads, QC2 serum, round 3 (beads reused).
For experiment [7] the target is unchanged. The experiment is described as follows: SPR, format and IBP4 form not stated. On the technique in general: SPR reads the build-up and loss of mass on a sensor chip optically.
Experiment [8] shares this target. The experiment is described as follows: AC-MS, mAb on M-PVA beads, pooled pregnant serum, peptide ….
Text: as §1

In experiment [9] the target is T4, human sex hormone-binding globulin (SHBG) (human, UniProt P04278 30-402, O-linked glycan at T36 (native glycosylated form)).
T4 construct: Purified human SHBG, the SHBG antigen of the SPR runs, or SHBG in human serum; also called SHBG protein
T4 sequence: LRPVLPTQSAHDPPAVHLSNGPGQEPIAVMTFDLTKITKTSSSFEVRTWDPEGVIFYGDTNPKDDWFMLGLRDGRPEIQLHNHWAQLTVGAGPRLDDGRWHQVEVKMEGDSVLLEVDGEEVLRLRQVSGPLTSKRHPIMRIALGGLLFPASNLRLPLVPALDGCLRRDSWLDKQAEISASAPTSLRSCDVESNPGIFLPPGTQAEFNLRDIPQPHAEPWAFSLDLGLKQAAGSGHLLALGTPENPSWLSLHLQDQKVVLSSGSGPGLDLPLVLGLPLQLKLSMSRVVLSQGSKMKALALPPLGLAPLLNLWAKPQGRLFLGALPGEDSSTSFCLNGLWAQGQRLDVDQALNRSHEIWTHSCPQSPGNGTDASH
The experiment is described as follows: SPR (Biacore T100), mAb captured on anti-mouse IgG, SHBG antigen injected, 1:1 fit, assay 3. Here is the method: (§2) Surface plasmon resonance experiments were performed on a BiacoreT100 to characterize the anti-SHBG and anti-IBP4 antibodies. Anti-mouse-IgG antibody was amine coupled to ˜500 RU on a C1 sensor chip using standard NHS/EDC activation. Test monoclonal antibodies were captured on the anti-mouse-IgG surfaces. The binding for the Sex Hormone Binding Globulin Antigen to anti-SHBG variant antibodies 4G10.F8 and 13C9.E5 were measured in a multi-cycle kinetic mode. Binding studies were performed in PBS buffer+0.05% P20+3 mM EDTA at 25 degrees C. SHBG was captured for 1 minute at 200 nM and regenerated with 1/100 H3PO4 after each cycle. SHBG was captured to similar densities on 2 different flow cells followed by an injection of the SHBG antigen in a 3-fold titration series up to 600 nM over the two surfaces. The responses were processed by subtracting the buffer injection to correct for drift. The data sets fit well to a simple 1:1 interaction model using SCRUBBER (Biologic Software Pty Ltd). The antigen concentration series was tested three times over each surface, giving rise to the kinetic an affinity parameters summarized below.

Experiment [10] has as its target T4, human sex hormone-binding globulin …. The experiment is described as follows: SPR (Biacore T100), mAb captured on anti-mouse IgG, SHBG antigen injected, 1:1 fit, assay 1. Here is the method:
as §2

For experiment [11] the target is unchanged. The experiment is described as follows: SPR (Biacore T100), mAb captured on anti-mouse IgG, SHBG antigen injected, 1:1 fit, assay 2. On the procedure:
as §2

For experiment [12] the target is unchanged. The experiment is described as follows: SPR (Biacore T100), mAb captured on anti-mouse IgG, SHBG antigen injected, average of 3 assays. Here is the method: as §2

For HPKQCHPALDGQRGK [G6], the binding result in [1] and in [2] was “no binding (tested: about 7 ul of peptide)” each time.

Regarding CHPALDGQRGKCWCV [G8], the binding result in experiment [1] and in [2] was “binds” throughout.

B1: anti-IBP4 antibody 1G3.A3 (antibody, mouse IgG1)
heavy: QVQLQQSGAELVRPGASVTLSCKASGYTFTDYEMHWVKQTPVHGLEWIGAIDPETGGIAYNQKFRGKAILTADKSSSTAYMELRSLTSEDSAVYYCARNYGISSYYAVDYWGQGTSVTVSSAKTTPPSVYPLAPGSAAQTNSMVTLGCLVKGYFPEPVTVTWNSGSLSSGVHTFPAVLQSDLYTLSSSVTVPSSTWPSQTVTCNVAHPASSTKVDKKIVPRDCGCKPCICTVPEVSSVFIFPPKPKDVLTITLTPKVTCVVVDISKDDPEVQFSWFVDDVEVHTAQTKPREEQINSTFRSVSELPIMHQDWLNGKEFKCRVNSAAFPAPIEKTISKTKGRPKAPQVYTIPPPKEQMAKDKVSLTCMITNFFPEDITVEWQWNGQPAENYKNTQPIMDTDGSYFVYSKLNVQKSNWEAGNTFTCSVLHEGLHNHHTEKSLSHSPGK
light: DIVMTQSQKFMSTTVGERVSITCKASQNVGTAVAWYQQKPGQSPKLLIYSASNRYTGVPDRFTGSGSGTDFTLTISNMQSEDLADYVSQQYSSYPLTFGAGTKLELK
notes: Mouse hybridoma mAb raised against FL IBP4; also called IBP4-1G3.A3
As to B1, the “ave RR” value in experiment [3] stood at 0.291. In addition, in [4], the “ave RR” value was 0.281. In addition, the “ave IBP4 AC-MS RR” value in experiment [5] is 0.272. In addition, the “ave RR” value in experiment [6] was 0.289. Further, in experiment [7], the Kd was found to be 22 nM, the koff was determined as 0.0033 s⁻¹, the kon was 160000 M⁻¹ s⁻¹ and the t1/2 was determined as 3.5 min. Besides, the “Response Ratio” value in [8] is 0.272.

B2: anti-IBP4 antibody 3D4.E9 (antibody, mouse IgG2b, kappa, V domains shown)
VH: QVQLQQSGAELVRPGASVTLSCKASGYTFTDYEMHWVKQTPVHGLEWIGAIDPETGGAAYNQKFKGKAILTADKSSSTAYMELRSLTSEDSAVYYCTRARGSSSVYYFDYWGQGTTLTVSS
VL: DIVMTQSQKFMSTSVGDRVSVTCKASQNVGTNVAWYQQKPGQSPKALIYSTSYRYSGVPDRFTGSRSGTDFILTISNVQSEDLAEYFCQQYDSYPLTFGSGTKLEIKR
notes: Mouse hybridoma mAb raised against FL IBP4; also called IBP4-3D4.E9
For B2, in [3], the “ave RR” value came out at 0.468. Further, the “ave RR” value in [4] worked out at 0.491. In addition, the “ave IBP4 AC-MS RR” value in experiment [5] was 0.439. In addition, the “ave RR” value in experiment [6] turned out to be 0.454. In experiment [7], this molecule gave a Kd of 8 nM, a koff of 0.00221 s⁻¹, a kon of 270000 M⁻¹ s⁻¹ and a t1/2 of 5.23 min. Besides, the “Response Ratio” value in [8] was 0.439.

B3: anti-SHBG antibody clone variant 13C9.E5 (antibody, mouse IgG1, kappa, V domains shown)
VH: QIQLQQPGAELVKPGASVKMSCKASGYTFTGYWMHWVKQRPGQGLEWIGVIDPSDTYTNYNQKFRGKATLTVDTSSSTAYMQLSGLTSEDSAVYYCTRDPLVTADFDYWGQGTTLTVSS
VL: B2 VL with G30D, Q37R, T51A, Y55F, R66G, I72T, V78F, L96Y, S100G
notes: Mouse monoclonal; variant form; also called SHBG (13C9.E5) Anti SHBG v2; SHBG #16
For B3, the Kd in experiment [9] worked out at 1.27 nM; in experiment [10], 0.415 nM; in experiment [11], 0.765 nM; in [12], 0.8 nM. For the same molecule, the koff in experiment [9] was found to be 0.000119 s⁻¹; in experiment [10], 4.54e-05 s⁻¹; in experiment [11], 7.94e-05 s⁻¹; in experiment [12] it was 8e-05 s⁻¹. Also, the kon turned out to be 94100 M⁻¹ s⁻¹ in experiment [9], 109000 M⁻¹ s⁻¹ in [10], 104000 M⁻¹ s⁻¹ in experiment [11] and 103000 M⁻¹ s⁻¹ in experiment [12].

As to PALDGQRGKCWCVDR [G9], the binding result in experiment [1] and in [2] was “binds” each time.

For VDRKTGVKLPGGLEP [H3], the binding result in experiment [1] and in experiment [2] was “no binding (tested: about 7 ul of peptide)” in each case.

With LDGQRGKCWCVDRKT [G10], the binding result in experiment [1] and in experiment [2] was “binds” throughout.
